Target: SLA dehydrogenase RlGabD from Rhizobium leguminosarum SRDI565 (Rhizobium leguminosarum SRDI565)
Test: SEC-MALS

Substance: SLA dehydrogenase RlGabD from Rhizobium leguminosarum SRDI565 (enzyme)
- stoichiometry N: 4

— doi:10.1101/2023.03.13.532361
